# Source: patent WO2013157102A1 (dated 2013)
# Target: T1, mucin subtype 5AC expressed on BxPC3 cells (human, UniProt P98088 28-5654)
# T1 construct: whole, on cells; also called mucin 5AC; MUC5AC
# Experiment: flow cytometry on BxPC3 cells expressing mucin subtype 5AC, 20 ug/mL antibody, Alexa Fluor 488 anti-mouse IgG; mouse antibody is the positive reference
row,binding result,Binder
1,binds,"mucin subtype 5AC-specific mouse antibody (antibody, V domains shown, Detected with anti-mouse IgG) VH: EVKLVESGGVLVKSGGSLKLSCAVSGFTFSNYGMSWVRQTPEKRLEWVATISNSGRYTYFPDSVKGRFAISRDNAKNNLYLQMSSLRSADTALYYCTRHLDYANYDAMDYWGQGTSVTVSS VL: DIVLTQSPASLAVSLGQRATISCRASKSVTTSDFSYMHWYQQKPGQPPKLLLYLASNLESGVPDRFSGSGSGTDFTLNIHPVEEEDAATYYCQHSREFPWTFGGGTKLEIK"

# Target: T1, mucin subtype 5AC expressed on BxPC3 …
# Experiment: flow cytometry on BxPC3 cells expressing mucin subtype 5AC, 20 ug/mL antibody, Alexa Fluor 488 anti-human IgG
row,binding result,Binder
1,binds,"humanized antibody 6 (antibody, V domains shown, Detected with anti-human IgG; also called VH-5 combined with VL-5; mucin subtype 5AC-specific humanized antibody) VH: EVQLVESGGGLVKPGGSLRLSCAASGFTFSNYGMSWVRQAPGKGLEWVSTISNSGRYTYFPDSVKGRFTISRDNAKNSLYLQMNSLRAEDTAVYYCARHLDYANYDAMDYWGQGTLVTVSS VL: DIVMTQTPLSSPVTLGQPASISCRASKSVTTSDFSYMHWLQQRPGQPPRLLIYLASNLESGVPDRFSGSGAGTDFTLKISRVEAEDVGVYYCQHSREFPWTFGQGTKVEIK"
2,binds,"humanized antibody 7 (antibody, V domains shown, Detected with anti-human IgG; also called VH-6 combined with VL-5; mucin subtype 5AC-specific humanized antibody) VH: EVQLVESGGGVVRPGGSLRLSCAASGFTFDNYGMSWVRQAPGKGLEWVSTISNSGRYTYFPDSVKGRFTISRDNAKNSLYLQMNSLRAEDTALYHCARHLDYANYDAMDYWGQGTLVTVSS VL: DIVMTQTPLSSPVTLGQPASISCRASKSVTTSDFSYMHWLQQRPGQPPRLLIYLASNLESGVPDRFSGSGAGTDFTLKISRVEAEDVGVYYCQHSREFPWTFGQGTKVEIK"
3,binds,"humanized antibody 10 (antibody, V domains shown, Detected with anti-human IgG; also called VH-4 combined with VL-7; mucin subtype 5AC-specific humanized antibody) VH: EVQLLESGGGLVQPGGSLRLSCAASGFTFSNYGMSWVRQAPGKGLEWVSTISNSGRYTYFPDSVKGRFTISRDNSKNTLYLQMNSLRAEDTAVYYCAKHLDYANYDAMDYWGQGTLVTVSS VL: DIVMTQTPLSLSVTPGQPASISCRASKSVTTSDFSYMHWYLQKPGQPPQLLIYLASNLESGVPDRFSGSGSGTDFTLKISRVEAEDVGVYYCQHSREFPWTFGQGTKVEIK"
4,binds,"humanized antibody 3 (antibody, V domains shown, Detected with anti-human IgG; also called VH-4 combined with VL-2; mucin subtype 5AC-specific humanized antibody) VH: EVQLLESGGGLVQPGGSLRLSCAASGFTFSNYGMSWVRQAPGKGLEWVSTISNSGRYTYFPDSVKGRFTISRDNSKNTLYLQMNSLRAEDTAVYYCAKHLDYANYDAMDYWGQGTLVTVSS VL: DIQMTQSPSTLAVSLGDRVTITCRASKSVTTSDFSYMHWYQQKPGKAPKLLMYLASNLESGVPSRFIGSGSGTEFTLTISSLQPDDFATYYCQHSREFPWTFGQGTKVEVK"
5,binds,"humanized antibody 5 (antibody, V domains shown, Detected with anti-human IgG; also called VH-4 combined with VL-4; mucin subtype 5AC-specific humanized antibody) VH: EVQLLESGGGLVQPGGSLRLSCAASGFTFSNYGMSWVRQAPGKGLEWVSTISNSGRYTYFPDSVKGRFTISRDNSKNTLYLQMNSLRAEDTAVYYCAKHLDYANYDAMDYWGQGTLVTVSS VL: DIQMTQSPSSLAVSLGDRVTITCRASKSVTTSDFSYMHWYQQTPGKAPKLLIYLASNLESGVPSRFSGSGSGTDYTFTISSLQPEDIATYYCQHSREFPWTFGQGTKLQIT"
6,binds,"humanized antibody 1 (antibody, V domains shown, Expressed transiently in HEK293 cells and detected with anti-human IgG; also called VH-1 combined with VL-1; mucin subtype 5AC-specific humanized antibody) VH: QVQLVESGGGVVQPGRSLRLSCSSSGFIFSNYGMSWVRQAPEKRLEWVATISNSGRYTYFPDSVKGRFTISRDNSKNTLFLQMDSLRPEDTGVYFCARHLDYANYDAMDYWGQGTPVTVSS VL: DIVMTQSPNSLAVSLGERATINCRASKSVTTSDFSYMHWYQQKPGQPPKLLIYLASNLESGVPDRFSGSGSGTDFTLTISSLQAEDVAVYYCQHSREFPWTFGQGTKLEIK"

# More lines, now with the values behind:
row,Binder,binding result
1,"humanized antibody 2 (antibody, V domains shown, Detected with anti-human IgG; also called VH-4 combined with VL-5; mucin subtype 5AC-specific humanized antibody) VH: EVQLLESGGGLVQPGGSLRLSCAASGFTFSNYGMSWVRQAPGKGLEWVSTISNSGRYTYFPDSVKGRFTISRDNSKNTLYLQMNSLRAEDTAVYYCAKHLDYANYDAMDYWGQGTLVTVSS VL: DIVMTQTPLSSPVTLGQPASISCRASKSVTTSDFSYMHWLQQRPGQPPRLLIYLASNLESGVPDRFSGSGAGTDFTLKISRVEAEDVGVYYCQHSREFPWTFGQGTKVEIK",binds
2,"humanized antibody 9 (antibody, V domains shown, Detected with anti-human IgG; also called VH-3 combined with VL-5; mucin subtype 5AC-specific humanized antibody) VH: QVQLQESGPGLVRPSQSLKLTCTVSGSTFSNYGMSWVRQTPEKRLEWIGTISNSGRYTYFPDSVKGRVTMLVDTSKNQFSLQMSSVTAADTAVYYCARHLDYANYDAMDYWGQGSLVTVSS VL: DIVMTQTPLSSPVTLGQPASISCRASKSVTTSDFSYMHWLQQRPGQPPRLLIYLASNLESGVPDRFSGSGAGTDFTLKISRVEAEDVGVYYCQHSREFPWTFGQGTKVEIK",binds
3,"humanized antibody 4 (antibody, V domains shown, also called VH-4 combined with VL-3; mucin subtype 5AC-specific humanized antibody) VH: EVQLLESGGGLVQPGGSLRLSCAASGFTFSNYGMSWVRQAPGKGLEWVSTISNSGRYTYFPDSVKGRFTISRDNSKNTLYLQMNSLRAEDTAVYYCAKHLDYANYDAMDYWGQGTLVTVSS VL: DIQMTQSPSSLAVSLGDRVTITCRASKSVTTSDFSYMHWYQQKPGLAPKLLIYLASNLESGVPSRFSGSGSGTDFTFTISSLQPEDIATYYCQHSREFPWTFGQGTKVEVK",binds
